# Test results taken from the supplement of paper PMC10724198.
# ± gives the standard deviation of the averaged measurements.
# Key:
# Saccharomyces cerevisiae [1] = assay: protein stability index of tFT-peptide fusion (C-terminal peptide) (PSI (0-1 scale)); higher = more stable (slower turnover)
# Experimental: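 MPS profiling in S. cerevisiae of the tFT-X12 degron library: putative degron peptides plus stable controls, 12 aa, fused to the C-terminus of a sfGFP-mCherry timer. Cells are FACS-sorted into 8 mCherry/sfGFP bins and deep-sequenced. PSI runs from 0 (unstable) to 1 (stable). Backgrounds are wild type, das1Δ and doa10Δ at 30 °C, and wild type, das1Δ, cdc34-1 and cdc53-1 at 37 °C; 2-3 technical replicates each.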
# Saccharomyces cerevisiae [2] = assay: as above; conditions: genetic background: wild type; temperature: 30 C
# [3] = genetic background: cdc34-1, temperature: 37 C
# [4] = genetic background: cdc53-1, temperature: 37 C
# [5] = genetic background: das1 deletion, temperature: 30 C
# [6] = genetic background: das1 deletion, temperature: 37 C
# [7] = genetic background: doa10 deletion, temperature: 30 C
# [8] = genetic background: wild type, temperature: 30 C
# [9] = genetic background: wild type, temperature: 37 C
# 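Note: PSI is a weighted mean of sequencing reads over stability bins, variants kept only with over 10 reads, mCherry proximal and sfGFP distal, peptide attached via GGGS linker.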
Sequence,protein stability index (Saccharomyces cerevisiae [1]; [3]),protein stability index (Saccharomyces cerevisiae [1]; [4]),protein stability index (Saccharomyces cerevisiae [1]; [5]),protein stability index (Saccharomyces cerevisiae [1]; [6]),protein stability index (Saccharomyces cerevisiae [1]; [7]),protein stability index (Saccharomyces cerevisiae [1]; [8]),protein stability index (Saccharomyces cerevisiae [1]; [9]),protein stability index (Saccharomyces cerevisiae [2])
LLFPRVLVLCFS,0.034 ± 0.011,0.0512 ± 0.0018,0.124 ± 0.037,0.154 ± 0.0093,0.105 ± 0.016,0.117 ± 0.024,0.116 ± 0.012,0.183 ± 0.029
LLILIVNLRRIG,0.376 ± 0.0085,0.556 ± 0.069,0.36 ± 0.04,0.607 ± 0.028,0.1983 ± 0.0009,0.235 ± 0.011,0.444 ± 0.025,0.281 ± 0.052
LLISPFLFLLVC,0.0704 ± 0.043,0.0371 ± 0.002,0.0907 ± 0.02,0.0981 ± 0.022,0.0594 ± 0.018,0.0605 ± 0.014,0.0515 ± 0.00088,0.0803 ± 0.024
LLLLGVSLFLVR,0.282 ± 0.0053,0.378 ± 0.011,0.265 ± 0.019,0.454 ± 0.0081,0.223 ± 0.013,0.255 ± 0.018,0.4257 ± 0.0031,0.3657 ± 0.00075
LLLPSAPFLFLL,0.305 ± 0.015,0.256 ± 0.0043,0.307 ± 0.041,0.435 ± 0.029,0.3387 ± 0.0022,0.201 ± 0.017,0.288 ± 0.014,0.2954 ± 0.0012
LLMLWWARVFSG,0.296 ± 0.032,0.395 ± 0.045,0.298 ± 0.015,0.408 ± 0.0072,0.209 ± 0.016,0.243 ± 0.036,0.35 ± 0.0075,0.329 ± 0.0066
LLVFWRLWWSLS,0.248 ± 0.035,0.334 ± 0.011,0.251 ± 0.034,0.429 ± 0.028,0.081 ± 0.026,0.0903 ± 0.018,0.128 ± 0.007,0.157 ± 0.0075
LLVKFTFLIIFT,0.146 ± 0.0079,0.257 ± 0.089,0.191 ± 0.011,0.31 ± 0.019,0.27 ± 0.02,0.2 ± 0.015,0.2767 ± 0.0024,0.266 ± 0.025
LLVLPFFSLSRF,0.896 ± 0.028,0.90351 ± 0.00018,0.774 ± 0.0081,0.8734 ± 0.0026,0.748 ± 0.024,0.763 ± 0.017,0.852 ± 0.019,0.816 ± 0.01
LLVVFSCFTFMF,0.259 ± 0.0096,0.399 ± 0.042,0.277 ± 0.032,0.476 ± 0.0058,0.254 ± 0.027,0.279 ± 0.028,0.449 ± 0.022,0.38 ± 0.037
LMLGARVSRRIH,0.64 ± 0.082,0.687 ± 0.015,0.673 ± 0.026,0.707 ± 0.026,0.227 ± 0.02,0.263 ± 0.049,0.5065 ± 0.0015,0.402 ± 0.0098
LNALSHCRAICS,0.632 ± 0.027,0.687 ± 0.0091,0.604 ± 0.023,0.692 ± 0.015,0.238 ± 0.0073,0.268 ± 0.028,0.462 ± 0.0055,0.379 ± 0.039
LPASLSLWPLLC,0.4736 ± 0.0023,0.604 ± 0.025,0.537 ± 0.019,0.668 ± 0.012,0.0836 ± 0.017,0.0983 ± 0.017,0.127 ± 0.015,0.1137 ± 0.0011
LPPHLPFPLSAA,0.657 ± 0.0098,0.7225 ± 0.0025,0.638 ± 0.0075,0.724 ± 0.019,0.43 ± 0.0083,0.462 ± 0.019,0.621 ± 0.0089,0.383 ± 0.011
LPSPLLFLPALF,0.708 ± 0.017,0.7877 ± 0.0075,0.667 ± 0.025,0.778 ± 0.055,0.405 ± 0.011,0.436 ± 0.011,0.614 ± 0.017,0.466 ± 0.014
LQSVAFERGGPD,0.687 ± 0.017,0.736 ± 0.0092,0.649 ± 0.0084,0.729 ± 0.015,0.647 ± 0.026,0.661 ± 0.0084,0.7194 ± 0.0071,0.727 ± 0.018
LRSVVFFCRTLL,0.677 ± 0.045,0.7436 ± 0.0044,0.623 ± 0.014,0.731 ± 0.013,0.3373 ± 0.0013,0.362 ± 0.015,0.566 ± 0.017,0.5 ± 0.0099
LSFFDYVLLQIA,0.556 ± 0.03,0.58 ± 0.029,0.462 ± 0.032,0.635 ± 0.0073,0.166 ± 0.013,0.199 ± 0.028,0.317 ± 0.027,0.285 ± 0.01
LSLGVGSDAEGG,0.687 ± 0.06,0.736 ± 0.015,0.64 ± 0.02,0.743 ± 0.031,0.646 ± 0.021,0.645 ± 0.007,0.712 ± 0.0096,0.549 ± 0.17
LSYRFVFRFLLF,0.543 ± 0.067,0.592 ± 0.0035,0.525 ± 0.013,0.573 ± 0.014,0.39 ± 0.017,0.372 ± 0.027,0.472 ± 0.0083,0.421 ± 0.0094

Sequence,protein stability index (Saccharomyces cerevisiae [1]; [3]),protein stability index (Saccharomyces cerevisiae [1]; [4]),protein stability index (Saccharomyces cerevisiae [1]; [5]),protein stability index (Saccharomyces cerevisiae [1]; [6]),protein stability index (Saccharomyces cerevisiae [1]; [7]),protein stability index (Saccharomyces cerevisiae [1]; [8]),protein stability index (Saccharomyces cerevisiae [1]; [9]),protein stability index (Saccharomyces cerevisiae [2])
LVCLFFLSSLFF,0.547 ± 0.05,0.606 ± 0.0081,0.495 ± 0.046,0.602 ± 0.022,0.46 ± 0.016,0.464 ± 0.02,0.58 ± 0.017,0.4609 ± 0.0043
LVCLVASCVRWL,0.453 ± 0.022,0.533 ± 0.0085,0.359 ± 0.037,0.5664 ± 0.0041,0.237 ± 0.0034,0.272 ± 0.027,0.4608 ± 0.0029,0.357 ± 0.019
LVGVLLAVWSVV,0.2387 ± 0.00038,0.294 ± 0.039,0.249 ± 0.039,0.412 ± 0.0087,0.168 ± 0.0025,0.197 ± 0.019,0.338 ± 0.045,0.308 ± 0.017
LVLGLYGVWLVV,0.262 ± 0.005,0.179 ± 0.022,0.254 ± 0.026,0.4104 ± 0.0027,0.355 ± 0.015,0.243 ± 0.024,0.3561 ± 0.0035,0.345 ± 0.015
LVMYRSALIRGH,0.526 ± 0.039,0.529 ± 0.042,0.445 ± 0.0092,0.5693 ± 0.0033,0.3624 ± 0.00052,0.396 ± 0.03,0.525 ± 0.01,0.462 ± 0.05
LVSWAWIWIFVF,0.251 ± 0.057,0.354 ± 0.022,0.253 ± 0.039,0.417 ± 0.0085,0.171 ± 0.0065,0.194 ± 0.022,0.32239 ± 2.4e-05,0.226 ± 0.054
LVSYHKMAISSF,0.595 ± 0.017,0.58 ± 0.019,0.436 ± 0.022,0.626 ± 0.047,0.421 ± 0.0095,0.44 ± 0.022,0.571 ± 0.0095,0.47 ± 0.051
LWWTRVILYGYI,0.51 ± 0.0061,0.571 ± 0.021,0.456 ± 0.027,0.5496 ± 0.0039,0.34 ± 0.0087,0.353 ± 0.016,0.445 ± 0.013,0.387 ± 0.036
LYCGLIFFLRGV,0.6263 ± 0.0019,0.6389 ± 0.0017,0.516 ± 0.018,0.6475 ± 0.0026,0.468 ± 0.032,0.472 ± 0.029,0.612 ± 0.0081,0.516 ± 0.084
LYFLLGSLVFVF,0.366 ± 0.0083,0.417 ± 0.015,0.273 ± 0.035,0.506 ± 0.014,0.244 ± 0.0021,0.275 ± 0.019,0.461 ± 0.031,0.392 ± 0.0081
MALAVRVVTCGA,0.185 ± 0.014,0.297 ± 0.075,0.228 ± 0.036,0.363 ± 0.014,0.191 ± 0.0047,0.223 ± 0.031,0.313 ± 0.015,0.375 ± 0.076
MIQPRLANIIIS,0.8517 ± 0.0056,0.864 ± 0.017,0.683 ± 0.018,0.833 ± 0.015,0.713 ± 0.024,0.6987 ± 0.0051,0.779 ± 0.017,0.753 ± 0.018
MLVLFCLCYILG,0.2462 ± 0.0023,0.34 ± 0.013,0.231 ± 0.025,0.377 ± 0.0043,0.217 ± 0.013,0.235 ± 0.037,0.338 ± 0.03,0.341 ± 0.0068
MSHVCICRRLML,0.68 ± 0.037,0.743 ± 0.016,0.609 ± 0.025,0.712 ± 0.032,0.404 ± 0.028,0.427 ± 0.0081,0.646 ± 0.048,0.498 ± 0.011
NFVVYHVAIRVP,0.073 ± 0.0071,0.134 ± 0.0046,0.17 ± 0.017,0.2466 ± 0.0024,0.139 ± 0.0025,0.155 ± 0.019,0.198 ± 0.02,0.243 ± 0.037
PAPQAVRIFSLY,0.62 ± 0.089,0.74 ± 0.026,0.653 ± 0.044,0.744 ± 0.026,0.179 ± 0.01,0.183 ± 0.022,0.39 ± 0.019,0.428 ± 0.046
PASYPPFIYLSI,0.306 ± 0.012,0.288 ± 0.018,0.419 ± 0.032,0.496 ± 0.01,0.654 ± 0.018,0.418 ± 0.026,0.4461 ± 0.00056,0.434 ± 0.077
PCFACIAFVLFP,0.451 ± 0.013,0.413 ± 0.093,0.356 ± 0.038,0.509 ± 0.032,0.334 ± 0.013,0.343 ± 0.014,0.4507 ± 0.0011,0.4827 ± 0.004
PLFLRPLSVPVL,0.421 ± 0.0067,0.441 ± 0.01,0.333 ± 0.03,0.457 ± 0.0058,0.305 ± 0.0096,0.328 ± 0.024,0.4324 ± 0.0022,0.425 ± 0.0092
